Data on one molecule can be found in patent publication US20190307868A1 (published 2019).

The target of this assay is HLA-B08:01 (human). In words: peptide-MHC-I complex dissociation half-life, 125I-b2m, 37 C. Here is the method: Briefly, synthetic genes encoding biotinylated MHC-I heavy and light chains are expressed in E. coli and purified from inclusion bodies using standard methods. The light chain (β2m) is radio-labeled with iodine (¹²⁵I), and combined with the purified MHC-I heavy chain and peptide of interest at 18° C. to initiate pMHC-I complex formation. These reactions are carried out in streptavidin coated microplates to bind th biotinylated MHC-I heavy chains to the surface and allow measurement of radiolabeled light chain to monitor complex formation. Dissociation is initiated by addition of higher concentrations of unlabeled light-chain and incubation at 37° C. Stability is defined as the length of time in hours it takes for half of the complexes to dissociate, as measured by scintillation counts

In the case of QVYRRKHQEL [QVYRRKHQEL (EML4:ALK)], the “Stability (T1/2 (h))” value stood at 0 h.
